Measured values: paper PMC4156082

Columns and labels:
[1] = molecular target: Soluble RhoA (residues 1–181) (UniProt P61586); test: SPR; Biacore 3000; His6-RhoA loaded with GDPβS (RhoA-GDP) held on a nitrilotriacetic acid chip; untagged onco-Lbc or DHαPH injected (0–5 μM); PBS pH 7.4, 1 mM MgCl2; reference lane His6-ubiquitin; constant of onco-Lbc called apparent (two sites)
[2] = molecular target: Soluble RhoA (residues 1–181) (UniProt P61586); test: SPR; Biacore 3000; His6-RhoA loaded with GTPγS (RhoA-GTP) held on a nitrilotriacetic acid chip; untagged onco-Lbc or DHαPH injected (0–5 μM); PBS pH 7.4, 1 mM MgCl2; reference lane His6-ubiquitin; constant of onco-Lbc called apparent (two sites)
[3] = molecular target: Soluble RhoA (residues 1–181) (UniProt P61586)
[4] = molecular target: Soluble RhoA (residues 1–181) (UniProt P61586); remark: listed apart in the source

Chain of UniProt P61586 (P61586 1-181): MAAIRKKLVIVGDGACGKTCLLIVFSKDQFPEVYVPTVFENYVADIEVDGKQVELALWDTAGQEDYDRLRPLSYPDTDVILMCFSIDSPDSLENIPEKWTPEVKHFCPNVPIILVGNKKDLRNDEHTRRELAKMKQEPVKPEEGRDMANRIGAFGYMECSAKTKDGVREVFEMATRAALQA

| Kd [1] [nM] | Kd [2] [nM] | relative activity (specific exchange activity, DH-PH = 1) (fold of DH-PH) [3] | specific exchange activity (Mant-GDP on RhoA replaced by GMP-PNP) [3] [s⁻¹ M⁻¹] | GEF activity: exchange of GDP to Mant-GTP on RhoA, wild-type onco-Lbc = 100 (% of wild-type onco-Lbc) [4] | Molecule |
| --- | --- | --- | --- | --- | --- |
| > 50000 | 2930 |  |  |  | AKAP-Lbc construct encompassing residues 2164–2346 (DHαPH) (from UniProt Q12802 2164-2346) (domain or fragment) |
| 2880 | 2210 |  |  |  | onco-Lbc (AKAP13 residues 1922–2346) (domain or fragment) |
|  |  | 0.27 | 1070 | 8.4 | onco-Lbc E2001A (domain or fragment) |
|  |  | 1.86 | 7300 | 148 | onco-Lbc E2319A (domain or fragment) |
|  |  | 0.11 | 440 | 23.3 | onco-Lbc F2299A (domain or fragment) |
|  |  | 0.06 | 230 | 7.4 | onco-Lbc R2136G (domain or fragment) |
|  |  | 0.17 | 680 | 10.9 | onco-Lbc R2289A (domain or fragment) |
|  |  | 3.7 | 14300 | 174 | isolated DH domain of onco-Lbc (AKAP13 residues 1992–2210) (domain or fragment) VVKRQEVIYELMQTEFHHVRTLKIMSGVYSQGMMADLLFEQQMVEKLFPCLDELISIHSQFFQRILERKKESLVDKSEKNFLIKRIGDVLVNQFSGENAERLKKTYGKFCGQHNQSVNYFKDLYAKDKRFQAFVKKKMSSSVVRRLGIPECILLVTQRITKYPVLFQRILQCTKDNEVEQEDLAQSLSLVKDVIGAVDSKVASYEKKVRLNEIYTKTDS |
